First the molecules themselves.
B1: humanized 15F7 variant H1L1 (Hu15F7VHv1/Hu15F7VLv1) (antibody, V domains shown)
VH: EVQLQQSGAEVKKPGSSVKLSCKASGYTFTSYGLSWVKQRAGQGLEWIGEIFPRSGNTYYNEKFKGKATLTADKSSSTAYMELRSLRSEDTAVYFCARGVRSPGAMDYWGQGTLVTVSS
VL: DIQMTQSSSSLSASVGDRVTITCKASEDIYNRLAWYQQKPGNAPRLLISGATSLETGVPSRFSGSGSGKDYTLTISSLQTEDFATYYCQQYWSIPYTFGGGTKLEIKR
notes: They are human, since it was captured by a goat anti-human Fc sensor; also called VHv1/VLv1
B2: chimeric 15F7 (antibody, V domains shown)
VH: B1 VH with E1Q, A9T, V11L, K12A, K13R, S16A, S17A, R87T, T91S, L114S
VL: B1 VL with L11F, A13V, V15L, T74S, S76T, F83V, K103N
B3: humanized 15F7 variant H2L1 (Hu15F7VHv2/Hu15F7VLv1) (antibody, V domains shown)
VH: B1 VH with A41P, L70I
VL: B1 VL
notes: also called VHv2/VLv1
B4: humanized 15F7 variant H2L2 (Hu15F7VHv2/Hu15F7VLv2) (antibody, V domains shown)
VH: B1 VH with A41P, L70I
VL: B1 VL with S8P, R45K, Y71F, T80P, L104V
notes: also called VHv2/VLv2
B5: humanized 15F7 variant H1L2 (Hu15F7VHv1/Hu15F7VLv2) (antibody, V domains shown)
VH: B1 VH
VL: B1 VL with S8P, R45K, Y71F, T80P, L104V
notes: also called VHv1/VLv2

Positions count from the first letter of the chain named.

The first experiment addresses T1, LAMA4 / purified His-LAMA4 (species not stated).
T1 chain: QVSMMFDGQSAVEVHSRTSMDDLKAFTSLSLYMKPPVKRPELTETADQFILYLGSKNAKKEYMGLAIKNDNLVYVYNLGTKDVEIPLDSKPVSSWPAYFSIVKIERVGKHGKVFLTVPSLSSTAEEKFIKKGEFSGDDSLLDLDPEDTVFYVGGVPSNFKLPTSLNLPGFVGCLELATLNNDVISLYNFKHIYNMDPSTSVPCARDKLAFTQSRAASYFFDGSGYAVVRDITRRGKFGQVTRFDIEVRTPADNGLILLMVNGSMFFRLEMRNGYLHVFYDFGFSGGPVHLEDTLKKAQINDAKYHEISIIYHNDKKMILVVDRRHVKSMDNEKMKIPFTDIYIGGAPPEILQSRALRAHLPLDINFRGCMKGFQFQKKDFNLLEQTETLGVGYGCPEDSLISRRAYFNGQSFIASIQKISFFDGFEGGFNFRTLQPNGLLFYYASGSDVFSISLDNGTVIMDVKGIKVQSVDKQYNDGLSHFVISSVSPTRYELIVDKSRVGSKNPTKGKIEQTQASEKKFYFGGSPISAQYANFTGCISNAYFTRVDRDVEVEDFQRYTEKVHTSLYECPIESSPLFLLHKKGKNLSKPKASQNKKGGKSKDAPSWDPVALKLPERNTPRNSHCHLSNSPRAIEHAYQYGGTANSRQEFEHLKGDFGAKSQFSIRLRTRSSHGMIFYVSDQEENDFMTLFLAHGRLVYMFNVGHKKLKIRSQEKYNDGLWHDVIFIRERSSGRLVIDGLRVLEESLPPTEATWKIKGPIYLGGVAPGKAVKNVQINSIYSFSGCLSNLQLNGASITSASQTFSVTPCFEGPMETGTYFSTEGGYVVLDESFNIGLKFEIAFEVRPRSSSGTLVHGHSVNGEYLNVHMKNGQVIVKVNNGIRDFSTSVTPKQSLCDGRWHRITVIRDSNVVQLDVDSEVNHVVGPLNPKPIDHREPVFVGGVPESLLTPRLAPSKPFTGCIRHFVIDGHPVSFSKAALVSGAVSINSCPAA
Nature of the experiment: SPR (Biacore), full kinetic analysis; species of LAMA4 not stated.
As a reminder, the Kd is a measure of binding affinity in units of concentration. Read a low Kd as higher affinity. The term koff denotes the rate constant with which the complex falls apart. A high value points to a short-lived complex. One may read the kon as a measure of how fast the partners come together. Low values mean slow association, high ones fast association. In turn, B1 showed a Kd of 0.12 nM, a koff of 0.000183 s⁻¹ and an association rate constant (kon) of 1.5e+06 M⁻¹ s⁻¹.

B2 came in with a Kd of 0.1 nM, a koff of 0.000151 s⁻¹ and a kon of 1.5e+06 M⁻¹ s⁻¹.

In turn, B3 displayed a dissociation constant Kd of 0.13 nM, an off-rate (koff) of 0.000205 s⁻¹ and an on-rate constant (kon) of 1.56e+06 M⁻¹ s⁻¹.

A further experiment addresses T2, human LAMA4 LG4-5 fragment displayed on 293 cells (pDisplay) (human, UniProt Q16363 1453-1821, limits assumed).
T2 sequence: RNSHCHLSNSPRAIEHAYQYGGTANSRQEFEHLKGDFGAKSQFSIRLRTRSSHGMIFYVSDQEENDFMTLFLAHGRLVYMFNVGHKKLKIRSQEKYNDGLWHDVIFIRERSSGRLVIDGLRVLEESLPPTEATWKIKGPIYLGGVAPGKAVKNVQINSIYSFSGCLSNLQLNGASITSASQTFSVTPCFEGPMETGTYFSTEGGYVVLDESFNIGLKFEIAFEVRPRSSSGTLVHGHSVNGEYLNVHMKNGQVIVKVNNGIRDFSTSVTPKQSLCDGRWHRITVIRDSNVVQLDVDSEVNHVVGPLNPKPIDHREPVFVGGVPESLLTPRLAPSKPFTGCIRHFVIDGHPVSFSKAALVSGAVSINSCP
Nature of the experiment: flow cytometry, serial dilution on 293 cells displaying LG4-5. As to the method: Chimeric 15F7, H1L1, H1L2, H2L1, H2L2, and buffer alone were tested for their ability to bind to LAMA4-fragment-displaying cells. To test LAMA4 binding capacity, serially diluted antibodies were pre-incubated with human 293 cells displaying LG4-5, followed by anti-human-650 secondary antibody incubation as described in the Materials and Methods. Fluorescent signal was assessed via flow cytometric analyses and plotted as mean fluorescence intensity (MFI) as shown in FIG. 8.
(§1) Human LAMA4 G-domains 1-5 and variants were cloned into pDisplay expression construct (Life Technologies) and transiently transfected into 293 cells using standard procedures. Anti-LAMA4 antibodies were incubated with cells for 30 min at 4° C. and followed by anti-mouse-650 for 30 minutes at 4° C. Cells were analyzed for anti-laminin binding by flow cytometry using standard procedures.
Background: In flow cytometry, cells or beads pass a laser one at a time.
B1: the binding result was “binds”.

In the case of B4, the binding result is “binds”.

B5: the binding result is “binds”.

Take B3: the binding result is recorded as “binds”.

Another experiment addresses T3, human LAMA4 G domain LG1-5 displayed on 293 cells (pDisplay) (human, UniProt Q16363 830-1821, limits assumed).
T3 construct: The pDisplay vector parts (leader, tags, PDGFR transmembrane anchor) are not described; also called LAMA4-displaying 293 cells; Human LAMA4 G-domains 1-5
T3 sequence: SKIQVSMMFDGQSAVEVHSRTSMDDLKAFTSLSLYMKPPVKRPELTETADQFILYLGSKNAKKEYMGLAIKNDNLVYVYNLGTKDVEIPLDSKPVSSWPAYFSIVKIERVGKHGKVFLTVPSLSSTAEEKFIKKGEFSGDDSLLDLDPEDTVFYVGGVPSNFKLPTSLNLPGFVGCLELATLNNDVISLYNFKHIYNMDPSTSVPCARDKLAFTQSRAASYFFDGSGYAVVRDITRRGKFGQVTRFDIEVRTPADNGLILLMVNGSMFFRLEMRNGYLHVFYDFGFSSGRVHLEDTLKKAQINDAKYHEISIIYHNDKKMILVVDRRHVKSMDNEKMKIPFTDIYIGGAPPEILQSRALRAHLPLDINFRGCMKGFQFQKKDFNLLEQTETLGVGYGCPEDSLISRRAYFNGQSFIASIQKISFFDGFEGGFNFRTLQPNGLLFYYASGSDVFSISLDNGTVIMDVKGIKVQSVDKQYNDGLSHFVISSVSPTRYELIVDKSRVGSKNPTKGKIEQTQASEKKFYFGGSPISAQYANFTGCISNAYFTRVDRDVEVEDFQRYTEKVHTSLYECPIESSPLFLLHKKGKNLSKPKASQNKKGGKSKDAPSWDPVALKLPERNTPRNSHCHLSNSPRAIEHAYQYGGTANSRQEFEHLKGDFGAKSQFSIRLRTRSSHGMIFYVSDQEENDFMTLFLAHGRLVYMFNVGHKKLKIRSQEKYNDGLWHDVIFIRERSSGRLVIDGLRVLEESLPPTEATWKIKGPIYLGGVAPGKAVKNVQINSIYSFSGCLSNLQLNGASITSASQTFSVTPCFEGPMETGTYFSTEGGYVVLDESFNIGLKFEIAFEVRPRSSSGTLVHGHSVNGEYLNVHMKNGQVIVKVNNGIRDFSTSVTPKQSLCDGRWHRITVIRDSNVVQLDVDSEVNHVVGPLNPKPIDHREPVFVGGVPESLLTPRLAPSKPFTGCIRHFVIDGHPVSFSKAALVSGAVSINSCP
Nature of the experiment: flow cytometry on 293 cells displaying LAMA4 fragments. The method, then: (§2) The specific binding of the chimeric 15F7, […] H1L2, H2L1, and H2L2 antibodies to the LG4-5 modules of the G domain of LAMA4 was tested by assessing the antibodies' ability to stain LAMA4-fragment-displaying 293 cells by flow cytometry, as shown in FIG. 9. Each of the antibodies was able to specifically bind 293 cells displaying LG1-5 and LG4-5, but not LG1-3.
as §1
For B1, the binding result is on record as “binds”.

B4: the binding result is on record as “binds”.

As to B5, the binding result was “binds”.

For the molecule B3, the binding result is “binds”.

Another experiment has as its target T4, human LAMA4 LG1-3 fragment displayed on 293 cells (pDisplay) (human, UniProt Q16363 830-1430, limits assumed).
T4 sequence: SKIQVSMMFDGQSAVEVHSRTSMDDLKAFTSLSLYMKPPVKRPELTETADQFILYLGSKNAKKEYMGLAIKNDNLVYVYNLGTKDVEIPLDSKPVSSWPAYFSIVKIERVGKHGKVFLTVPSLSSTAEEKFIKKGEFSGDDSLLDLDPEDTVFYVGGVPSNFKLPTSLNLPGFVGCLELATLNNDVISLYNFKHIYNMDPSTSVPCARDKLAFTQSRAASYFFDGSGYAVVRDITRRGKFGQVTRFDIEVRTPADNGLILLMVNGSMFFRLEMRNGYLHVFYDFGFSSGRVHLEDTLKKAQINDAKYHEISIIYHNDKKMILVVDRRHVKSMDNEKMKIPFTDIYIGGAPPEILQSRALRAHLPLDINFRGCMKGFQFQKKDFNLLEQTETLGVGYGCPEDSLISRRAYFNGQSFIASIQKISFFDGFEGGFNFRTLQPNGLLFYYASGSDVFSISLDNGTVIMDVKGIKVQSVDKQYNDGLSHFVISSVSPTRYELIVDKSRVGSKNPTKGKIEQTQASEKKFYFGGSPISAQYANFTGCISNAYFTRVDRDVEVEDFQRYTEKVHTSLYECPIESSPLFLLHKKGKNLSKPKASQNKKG
The description is as above. The method, then: as §2, §1
B1: the binding result was “no binding”.

Consider B2, for which the binding result was “no binding”.

For the molecule B4, the binding result was “no binding”.

Regarding B5, the binding result is given as “no binding”.

Regarding B3, the binding result is reported as “no binding”.

These data come from patent US20150259408A1 (PROTHENA BIOSCIENCES, published 2015).
